In patent US20090282582A1, “ENVIRONMENTAL STRESS RESPONSIVE PROMOTER AND METHOD OF TISSUE-SPECIFIC GENE EXPRESSION USING THE SAME” (RIKEN, priority 2006, published 2009):

B1: Promoter of RAFL09-07-M01: environmental stress responsive promoter DNA, SEQ ID NO: 7, upstream of At4g20830 (protein containing FAD-binding domain) (nucleic acid, listed as Arabidopsis thaliana)
DNA: AGGTGCAGGAGATTGAATCGAAGCTTCGTTTATAAAACAATGTACATAGTTGTTTAAAGTCTTAAAGTTGGACTTTTCTTTTGCTCAGCCCCACAAACCCAATTGGATTATAATACCGACGCCGACCAATCAATGCTACGACCATTGACTTATAAAACATACATCGGACACACACAAAAAAAAACTACACTTTTTGTATCAGCAATCTTTTTAGTTATTTGTTTTCAGTTATATAAATCAATGTTTGTGTTTTCTAATAACAGTTATTAGTATGCTAGTGATGCATGGTTAAAAAAAAAAAAAGAAATTTCAAATATATATTTTAATTTGCATTATGTAAAATATTTTAAAAATAAGTCCCTAGTACCAATGGAGTGTTTTTGTTTAAGCTACAAGTGAATTATAATACGTAGTAATCTTGATTCAAATGGAAAGATTTACCATGTGGGTCTATACCAAAACCGTGTCCTTTTTCATATGTATGAATCTCTAATAGTTGCTTCTTTTGACTAGAATAATTTGTAAAGTAACTCCTAATTCATAAATATTGAAGATTAGTCTGATTTATTATTAATATGCAAATCTCTGATTAATAAGAAATAAATTATAATAGAAATATTGATGTGTACTGATCATCTTTTAATAAATGTTTGAGACTACAAATACTATAATGAATCAAATGAACATAAATGTATAGATGAACTGAATAAAATTCCAGATACACCTTGAATTAAATATGTATTCATAGTATTTTTTTTTAAAATGAAATCTGGATTTTAAATCCTTATTATTCAAAAAAATCTTCTCCTTTGATATTTTTGCTATAACAAATTAAAATAAAATCTGTAATCACTAATCATATCCCTTAACTCCCTTTAATATCTTTTGTTGACCAAAACAAATATTTTTTTGTTATATGCAACGAATAAAAAAACATTGAAAGTACTTTCCAAAAACAAAACACGTCTTCTTCTCCCTGCGGTTATAAATAGACACGGATAAGTACAAAGAACAGAGGAACACGAGACCCAAGAAAAAGATCTCAAA
B2: Promoter of RAFL07-08-I12: environmental stress responsive promoter DNA, SEQ ID NO: 6, upstream of At2g26530 (homolog of calmodulin-binding protein) (nucleic acid, listed as Arabidopsis thaliana)
DNA: CGGGTTTTATTTTGGAATTGGGTTATATGGTGGATGTATTTGAATCAATATTTATAAAAATTTAACAATTATCTCATGGATTCGTGGTATAACGTTACCTAATAACAATTATAAACTGTAAAATAAAAATATTTTATAAAAATAAAATTTGCAAGTTTTAATATATATTACTTTTAAAAAATAAATCGTCCCGCGGTATACCGCGGGTTAAAATCTAGTCTATGTTTATTATAAAAGAATACAATGTATTAATGTATAAATTATCTTATGCATGAGCACGATGATCATCTAGTAGTATACATCTTACCCGTCGACAAAAACAAAATGTTCCTTATCCAGTATCTAGATGGATCGTGTGAACTCAATTCTACGTAGAACACAAAAGTCCTCTCGTTTGGTCACTGAATTAATTTGAACGATATTATTTATTAGGACCACCGGTTAAATTGGCCTCGTGGTCTAAATATGCCTTCGAATGGTCCAACAACCATGTGGTCAATGCCGACTATGAAAATGACTGAAAATTCAAAACATGTAAGTGGGTTACCACCACTTATCATTATGTTCCAAATCGTTTGCATTAAACAACTTTATTTCGACACATGCGGTCTGAAAAGGCGGCCAATTAATTTACGTTAATCATCGTTTACTATTATTATCTTCGGAATATTTCCAACACAATCAATCTAGTTGGTTCCAATTCTCATCACATATTTTATTTTATAGTTTAAAGTCTTTCAATTCAGTAGTCTAACTGTATAACATATGACTTCGAACAGATTGATATAGACCACTCAATCTAATAATATCGTTTTAGCTACGAAGAGTATACAAAAAAAGCTAGTTGGATAGTTTAAAAATTAAATGCTAGAAGAATGTTGGATATATCAAACAATAAAATTAATATTTAGAGAGAAAATATCGTAATAGAGTTTTTTCTATAAATAAATTTTTGAGTTAAAAAATATTATTAGCCTGACCAAACTCTTTTTATTTCTTTAAACTATGACAGTAAGATCTAAATTTTAATAAACCAATGTTTATTTAATATTTTCAGAAATGGGCTAAAAATGACTAGTTGTTGTATGTGTTTCCTTTGAATAAAAGCTCAACAAACAAAAACTAGAAGTCATTATGTAAAAAAACTAATGACATAGTATTAGGTATTTTTTGCAAATTATTCACACATGTTGCCAAAAGTTGTTTTTTATATTATATGTTTGGTCAGCGAAAACGGTTTAAAGCACTCTCTCTTTCCTCTCGCCTTCCTTTGATGATCCTTTTTAGTTCCCTTCTTCTCATTGCTCTTGAGACCATCTCCGAACTCAAAGGAAACTAGAAACA
B3: Promoter of RAFL08-17-O07: environmental stress responsive promoter DNA, SEQ ID NO: 8, upstream of At2g29450 (glutathione S-transferase) (nucleic acid, listed as Arabidopsis thaliana)
DNA: CGGTGGCAAAACAATTGGATTTTTGGACTTGGTCGCAGGAAGTATGATCCCGTTTTGTCTTGCTCGAGGTTGGGAAGGTATGGGAATTGATATGATTCCAGAGGAAAAGTTTCCAGAGCTAAACAGATGGATCAAAAATTTGAAAGAAATTGAGATCGTGAGAGAATGTATTCCTCCTAGAGAGGAACAAATTGAGCATATGAAGAAAGTTGTAGAAAGAATCAAATCAGCCTAAGAGACAACAATGATACTCTTCGATCAGTAGATGTTAACTATATGTTTGTGTAATCTTGTTATAATAGTTTGTATGAACAATAAATGAAACATTTGTATGAACAATTAGTGTTTTTACTAAATTCTAATGTCAATTAATTATTATAAACATTTTAAATGTAGTAGTATTCAATTTCTTACAAATCATAAGAAATTGGTTCATAAACCTGGAGTTTTCATATGAAAGAAAAGTAGATAAAAGCTATAATTTAGTCAAACCATCCTTCTTAATAAAACCACAACTATGATTAAATGTGAACATGTATTTCGACACGTAAGAAGTTGTGTAAACAGAGGAAAGTACAACGGACATGTGGGTCTATTTGTTGCGGCACAATATAACAAATTTCTTTAGTATATTTTTAGTATCGTGAGGTGGTGAGTCTTGTAACCATAGAAAATTCACCGATACTTTATAACATTGTTGGAAGGAAAATTCAGCAAACAAGTTCGTAGATGGAGAAACGGAAAAACCAACGCCTATTATAACAACAACATTTTTAATATATGCCAAAAGGAACATCAAATAACAGATTAGTACTAATTCTTTTTTTATAGCTCAGACTATAGAGTTGTTTGTTTTCTTGGGCGTCAATATAACAAACGAGAATGACAAATGGTTTTAAAGCTGTTGATGTTTCATACACAGACAAAATGGATCAATTATGAAGAACCACGATAAAGTGATGGGTATAATTGGGGAAGCAGAAGAAATTCTTGACGAAGCATGGGGTTGTCTTCAGAAAATGAATGGATCAAGTCAAGGTACACATGCTCCAGGGATAAGGCAAGGTTAGGAATTAGGACACATCTCCACTTACTAAAAAAGAGATAAAAAAAAATTATAAAGGGAACGTTATAAATATGTTGTAAAGTCAACATCTGTTTCCTTCTAGACTCTTCGCATTTACATCACACTGCCGACCATATAAAACGGCAAAGTTCGTCGTCGTTTTATCACAAGACCATCAACACCATAAGGCTATAAATCCAAGCTAAAAGGTAGTGATTAACTCCACAAAACCAGAAAAAACTACATTTCTAACATATAGAAGAAACAGAGAAAAAGAGAGAGAGACCCCTA

Key:
[1] = system: transgenic Arabidopsis thaliana plant body (luciferase reporter gene); assay: luciferase assay of promoter::LUC transgenic plants after environmental stress application; type: in vivo; conditions: for activity to induce gene expression compared with other promoters: in vivo; for Tissue allowing specific induction: summary over stress types
Outline: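 Arabidopsis lines carrying promoter::luciferase, 10 days after sowing on MS agar, sprayed with 1 mM luciferin (0.01% Triton-X), 5 min dark, imaged by ARGUS before stress. Stresses: 4° C, 2 h air dehydration, 250 mM NaCl or 100 μM ABA to roots; luminescence at 2, 5, 10 h.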

[2] = system: Arabidopsis thaliana (columbia ecotype) plant body; assay: full-length cDNA microarray analysis of gene expression levels after environmental stress application; conditions: in vivo
Outline: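 Three-week-old Arabidopsis grown at 22° C. on a 16 h light/8 h dark cycle were stressed by 4° C. cold, 2 h open-plate dehydration, or root application of MS medium containing 250 mM NaCl or 100 μM ABA. Total RNA/mRNA from stressed and unstressed plants was reverse transcribed with Cy3/Cy5 dUTP and hybridized to full-length cDNA microarrays.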

Molecule | Tissue in which specific induction of expression is realized ([1]; Salt stress (250 mM NaCl)) | Tissue in which specific induction of expression is realized ([1]; Salt stress (250 mM NaCl), listed as promoter of RAFL09-07-M01) | activity to induce gene expression compared with other promoters [1] | Tissue allowing specific induction [1] | Environmental stress type to which the promoter responds [2] | Tissue in which specific induction of expression is realized ([1]; Dehydration stress) | time after stress application at which activity to induce gene expression is exhibited ([1]; Dehydration stress) | Tissue in which specific induction of expression is realized ([1]; Dehydration stress, listed as promoter of RAFL07-08-I12) | time after stress application at which activity to induce gene expression is lowered ([1]; dehydration stress, stem and leaf tissue) | Tissue in which specific induction of expression is realized ([1]; ABA stress (100 μM ABA)) | Tissue in which specific induction of expression is realized ([1]; ABA stress (100 μM ABA), listed as promoter of RAFL08-17-O07)
B1 | Stem and leaf tissue and root tissue | stem and leaf tissue and root tissue | lower than that of other promoters | Stem and leaf tissue and root tissue | Dehydration and salt | – | – | – | – | – | –
B2 | – | – | – | Stem and leaf tissue | Dehydration and salt | Stem and leaf tissue | about 2 hours | stem and leaf tissue | about 5 hours | – | –
B3 | – | – | lower than that of other promoters | Root tissue | Dehydration and salt | – | – | – | – | Root tissue | root tissue
